Key:
Test in all cases: cell-based or functional assay
[1] = molecular target: HIV-1 Env of pseudovirus strain 6545.v4.c1 (HIV-1)
[2] = molecular target: HIV-1 Env protein of virus strain 89-F1_2_25 (HIV-1)
[3] = molecular target: HIV-1 YU2 Env, wild type (YU2 pseudovirus) (HIV-1) (UniProt P35961)
Sequence of HIV-1 YU2 Env, wild type (YU2 pseudovirus) (HIV-1) (P35961 32-843 limits assumed): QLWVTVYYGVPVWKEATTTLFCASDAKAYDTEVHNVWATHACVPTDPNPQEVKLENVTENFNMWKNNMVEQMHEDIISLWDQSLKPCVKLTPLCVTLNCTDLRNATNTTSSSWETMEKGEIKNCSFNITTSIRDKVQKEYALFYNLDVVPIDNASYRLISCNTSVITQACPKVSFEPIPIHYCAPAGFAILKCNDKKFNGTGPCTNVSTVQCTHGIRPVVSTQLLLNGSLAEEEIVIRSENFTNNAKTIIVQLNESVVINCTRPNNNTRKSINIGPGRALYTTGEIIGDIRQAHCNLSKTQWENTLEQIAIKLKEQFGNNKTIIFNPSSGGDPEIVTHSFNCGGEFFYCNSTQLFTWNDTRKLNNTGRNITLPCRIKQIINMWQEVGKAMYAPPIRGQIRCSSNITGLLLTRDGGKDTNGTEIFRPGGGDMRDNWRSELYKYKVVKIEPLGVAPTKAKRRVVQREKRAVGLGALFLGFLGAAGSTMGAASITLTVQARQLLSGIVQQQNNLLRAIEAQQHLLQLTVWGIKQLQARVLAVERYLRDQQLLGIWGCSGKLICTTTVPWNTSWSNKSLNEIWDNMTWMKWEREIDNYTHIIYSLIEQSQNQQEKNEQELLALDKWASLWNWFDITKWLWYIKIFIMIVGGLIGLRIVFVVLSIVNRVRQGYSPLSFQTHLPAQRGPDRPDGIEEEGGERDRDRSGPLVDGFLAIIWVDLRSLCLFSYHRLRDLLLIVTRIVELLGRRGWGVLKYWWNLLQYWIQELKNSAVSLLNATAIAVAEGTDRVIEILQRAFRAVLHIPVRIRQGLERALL

| Substance | IC50, TZM-bl pseudovirus neutralization assay [1] [µg/mL] | IC50, TZM-bl pseudovirus neutralization assay [2] [µg/mL] | IC50, TZM-bl cell neutralization assay [3] [µg/mL] |
| --- | --- | --- | --- |
| 3BNC117 (antibody) | > 20 | > 20 | – |
| 8ANC131 (antibody) | – | – | 0.256 |
| N6 (antibody) | 16.2 | > 20 | – |
| VRC01 (antibody) | > 20 | > 20 | 0.107 |
| VRC07-523-LS (antibody) | > 20 | – | – |
